According to patent US20100129369A1 (Eli Lilly, published 2010):
Residue numbers refer to the chain shown, from its start. Names and notes keep the numbering of the source.

B1: C8-6 (antibody, human IgG2, kappa, V domains shown)
VH: QVQLVQSGAEVKKPGASVKVSCKASGYTFTDYYMHWVRQAPGQGLEWMGRVNPNRGGTTYNQKFEGRVTMTTDTSTSTAYMELRSLRSDDTAVYYCARTNWLDYWGQGTTVTVSS
VL: DIQMTQSPSSLSASVGDRVTITCSVSSSVSSIYLHWYQQKPGKAPKLLIYSTSNLASGVPSRFSGSGSGTDFTLTISSLQPEDFATYYCIQYSGYPLTFGGGTKVEIKR
notes: Named IgG4 kappa; also called C8-6 IgG4
B2: D11-S17Y (antibody, human IgG2, kappa, V domains shown)
VH: QVQLVQSGAEVKKPGSSVKVSCKASGYTFTSRYIHWVRQAPGQGLEWMGWIYPVTGDTYYNEKFKGRVTITADKSTSTAYMELSSLRSEDTAVYYCARGYGAFYYWGQGTLVTVSS
VL: EIVLTQSPGTLSLSPGERATLSCSVSSSISSTNLHWYQQKPGQAPRLLIYGTSYLASGIPDRFSGSGSGTDFTLTISRLEPEDFAVYYCQQWSSYPYSFGQGTKLEIKR
notes: Human engineered IgG2 kappa c-Met antibody; also called D11-S17Y IgG2
B3: D11-C27G3 (antibody, human IgG2, kappa, V domains shown)
VH: B2 VH with N61R, K63P
VL: B2 VL with Y54R, A56R
notes: Human engineered IgG2 kappa c-Met antibody; also called D11-27G3; D11-C27G3 IgG2
B4: D11-8B8 (antibody, human IgG2, kappa, V domains shown)
VH: B2 VH with N61I, Y104F
VL: B2 VL
notes: Human engineered IgG2 kappa c-Met antibody; also called Mab D11-8B8; D11-8B8 IgG2
B5: C8-H241 (antibody, human IgG2, kappa, V domains shown)
VH: B1 VH with G56R, T99A
VL: B1 VL with I90Q, Q91V
notes: Named IgG4 kappa; also called Mab C8-H241

target: T1, human c-Met (human, UniProt P08581 25-1390); test: cell-based or functional assay
T1 sequence (P08581 25-1390): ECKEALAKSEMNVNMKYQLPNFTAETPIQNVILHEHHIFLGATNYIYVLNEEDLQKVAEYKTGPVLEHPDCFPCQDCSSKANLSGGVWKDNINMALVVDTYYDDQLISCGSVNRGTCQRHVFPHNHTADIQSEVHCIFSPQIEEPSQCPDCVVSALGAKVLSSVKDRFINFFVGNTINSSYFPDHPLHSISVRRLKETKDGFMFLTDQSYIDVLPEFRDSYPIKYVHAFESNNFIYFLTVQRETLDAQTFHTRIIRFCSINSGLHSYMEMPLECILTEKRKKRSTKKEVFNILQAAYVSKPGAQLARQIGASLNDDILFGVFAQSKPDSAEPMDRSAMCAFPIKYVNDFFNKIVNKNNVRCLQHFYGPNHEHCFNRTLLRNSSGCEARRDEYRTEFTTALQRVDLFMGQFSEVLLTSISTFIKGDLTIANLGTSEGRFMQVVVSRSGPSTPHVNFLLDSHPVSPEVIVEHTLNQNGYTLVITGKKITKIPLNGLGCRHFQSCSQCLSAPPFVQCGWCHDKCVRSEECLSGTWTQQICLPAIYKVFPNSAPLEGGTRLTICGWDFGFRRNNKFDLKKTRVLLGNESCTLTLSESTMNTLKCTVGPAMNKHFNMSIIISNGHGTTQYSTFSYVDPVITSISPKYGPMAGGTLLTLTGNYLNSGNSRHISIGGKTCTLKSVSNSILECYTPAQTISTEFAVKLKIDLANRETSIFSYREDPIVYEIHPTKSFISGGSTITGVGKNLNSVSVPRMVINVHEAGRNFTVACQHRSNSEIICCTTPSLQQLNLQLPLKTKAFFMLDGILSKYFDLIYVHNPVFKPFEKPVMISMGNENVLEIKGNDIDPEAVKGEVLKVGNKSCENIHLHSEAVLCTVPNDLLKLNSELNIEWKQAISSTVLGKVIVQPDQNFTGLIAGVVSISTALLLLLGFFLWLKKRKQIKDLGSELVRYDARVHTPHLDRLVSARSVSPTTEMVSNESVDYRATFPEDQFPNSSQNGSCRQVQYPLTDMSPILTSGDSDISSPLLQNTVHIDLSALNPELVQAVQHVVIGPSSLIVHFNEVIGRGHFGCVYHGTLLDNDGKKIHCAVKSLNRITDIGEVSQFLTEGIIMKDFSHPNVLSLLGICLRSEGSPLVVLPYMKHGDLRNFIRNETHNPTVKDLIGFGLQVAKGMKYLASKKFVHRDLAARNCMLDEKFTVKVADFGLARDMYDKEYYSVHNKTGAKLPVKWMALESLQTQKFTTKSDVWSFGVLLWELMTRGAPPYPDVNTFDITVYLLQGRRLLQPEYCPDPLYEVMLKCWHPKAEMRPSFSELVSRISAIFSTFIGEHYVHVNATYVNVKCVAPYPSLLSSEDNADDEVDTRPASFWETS

% inhibition of HGF stimulated phospho-Met (ELISA, HCT116 cells), Ab 0.0032 µg/mL [%]	% inhibition of HGF stimulated phospho-Met (ELISA, HCT116 cells), Ab 0.016 µg/mL [%]	% inhibition of HGF stimulated phospho-Met (ELISA, HCT116 cells), Ab 0.08 µg/mL [%]	% inhibition of HGF stimulated phospho-Met (ELISA, HCT116 cells), Ab 0.4 µg/mL [%]	% inhibition of HGF stimulated phospho-Met (ELISA, HCT116 cells), Ab 2 µg/mL [%]	% inhibition of HGF stimulated phospho-Met (ELISA, HCT116 cells), Ab 10 µg/mL [%]	Binder
-11.3	-6.06	7.79	16.8	27.9	14.9	B1
9.48	2.53	-3.24	15.9	31.4	16.7	B2
9.72	5.73	20.8	38.1	31.8	1.25	B3
-10.4	-6.68	10.5	35	40.7	19.6	B4

target: T1, human c-Met; test: cell-based or functional assay; remark: another data set of the same source

Mean Fluorescence (c-Met left on the surface of MKN45 cells, FACS), Ab 5.00 ug/mL	Binder
67.9	B1
56.4	B2
51.1	B3
44.7	B4

target: T1, human c-Met; test: cell-based or functional assay; remark: another data set of the same source

AVG CPM, 3H-thymidine incorporation in MKN45 cells, Ab 0.0 ng/mL (no antibody) [CPM]	AVG CPM, 3H-thymidine incorporation in MKN45 cells, Ab 0.1 ng/mL [CPM]	AVG CPM, 3H-thymidine incorporation in MKN45 cells, Ab 0.4 ng/mL [CPM]	AVG CPM, 3H-thymidine incorporation in MKN45 cells, Ab 2.6 ng/mL [CPM]	AVG CPM, 3H-thymidine incorporation in MKN45 cells, Ab 15.4 ng/mL [CPM]	AVG CPM, 3H-thymidine incorporation in MKN45 cells, Ab 92.6 ng/mL [CPM]	AVG CPM, 3H-thymidine incorporation in MKN45 cells, Ab 555.6 ng/mL [CPM]	AVG CPM, 3H-thymidine incorporation in MKN45 cells, Ab 3333.3 ng/mL [CPM]	AVG CPM, 3H-thymidine incorporation in MKN45 cells, Ab 20000.0 ng/mL [CPM]	Binder
48700	51700	53400	54600	44800	23000	18300	18200	16400	B1
44200	44600	45300	49900	39700	21900	20900	21200	19800	B2
44200	41500	44000	47000	28700	14600	16000	16900	18400	B3
50400	41600	43300	44700	24400	11100	11900	11400	11200	B4

target: T2, human c-Met ECD-Fc-Flis (human); test: HGF-blocking ELISA: HGF signal on coated c-Met ECD-Fc-Flis; Ab 0.48 ng/mL
T2 construct: c-Met ECD fused to Fc with flag- and His-tag at the C-terminus; also called human c-Met extracellular domain (ECD)-Fc-Flis fusion; human c-Met-Flis-Fc ECD
T2 sequence (chain, as listed by the source): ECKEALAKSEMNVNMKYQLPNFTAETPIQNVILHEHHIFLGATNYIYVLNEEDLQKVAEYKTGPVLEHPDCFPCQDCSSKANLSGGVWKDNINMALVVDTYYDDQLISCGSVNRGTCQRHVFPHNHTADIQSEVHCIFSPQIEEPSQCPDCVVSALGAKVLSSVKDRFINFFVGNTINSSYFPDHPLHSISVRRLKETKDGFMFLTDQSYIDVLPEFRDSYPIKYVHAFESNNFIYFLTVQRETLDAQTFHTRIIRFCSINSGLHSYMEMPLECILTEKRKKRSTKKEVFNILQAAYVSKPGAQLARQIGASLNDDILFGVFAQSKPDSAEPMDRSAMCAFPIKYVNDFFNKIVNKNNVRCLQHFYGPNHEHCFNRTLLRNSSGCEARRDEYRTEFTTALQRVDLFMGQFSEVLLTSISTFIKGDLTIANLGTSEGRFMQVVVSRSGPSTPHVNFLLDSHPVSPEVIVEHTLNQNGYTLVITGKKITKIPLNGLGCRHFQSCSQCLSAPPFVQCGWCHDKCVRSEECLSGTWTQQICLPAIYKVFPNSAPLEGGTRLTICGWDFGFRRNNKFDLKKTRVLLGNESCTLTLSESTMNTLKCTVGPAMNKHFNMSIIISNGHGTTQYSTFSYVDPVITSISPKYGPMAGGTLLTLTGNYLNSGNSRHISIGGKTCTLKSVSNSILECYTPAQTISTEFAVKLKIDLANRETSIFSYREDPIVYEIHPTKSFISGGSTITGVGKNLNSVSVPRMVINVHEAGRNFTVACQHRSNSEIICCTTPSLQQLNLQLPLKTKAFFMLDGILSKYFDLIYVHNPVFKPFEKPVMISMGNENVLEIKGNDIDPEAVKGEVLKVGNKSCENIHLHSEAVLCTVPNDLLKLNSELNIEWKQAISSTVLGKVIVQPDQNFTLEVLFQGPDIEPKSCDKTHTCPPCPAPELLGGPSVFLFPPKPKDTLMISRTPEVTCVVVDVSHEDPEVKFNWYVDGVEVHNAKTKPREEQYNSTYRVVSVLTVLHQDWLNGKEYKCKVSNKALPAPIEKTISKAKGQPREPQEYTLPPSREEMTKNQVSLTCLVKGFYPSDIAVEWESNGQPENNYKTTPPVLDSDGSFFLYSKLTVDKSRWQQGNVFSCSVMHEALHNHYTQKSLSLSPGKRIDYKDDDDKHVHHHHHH
Experimental: (§1) Wells of 96-well EIA/RIA high binding plates (Costar, #2592) are coated with 100 μL of human c-Met ECD-Fc-Flis (SEQ ID NO:72) (2 μg/mL) in Dulbecco's phosphate buffered saline (DPBS) overnight at room temperature; washed four times with wash buffer (Tris-buffered saline, pH 8.0, with 0.05% (v/v) polysorbate 20 (TWEEN®-20) (TBS-T) (BioFX Labs, # WSHW-1000-01) in a plate washer; blocked by adding 300 μL of blocking buffer (TBS-T plus 1% (w/v) bovine serum albumin (BSA) (Jackson Immuno, #001-000-162); and incubating for 60 min. at 37° C. Blocking buffer is then removed from the wells and 50 μL of antibodies in blocking buffer at final concentrations as indicated in Table 7 are added into each well, respectively. […] The plates with c-Met antibodies are incubated for 90 min. at 37° C. […] The wells are then washed four times with TBS-T in a plate washer. […] The plates are incubated for 90 min. at room temperature. The wells are again washed four times with TBS-T in a plate washer. 100 μL of a 1:200 dilution of streptavidin-horseradish peroxidase (HRP) (R&D Systems, DY998) in blocking buffer are added to each well. The plates are incubated for 30 min. at room temperature. The wells are washed four times with TBS-T in a plate washer. 100 μL/well of substrate solution (BioFx, #TMBW-1000-01) are then added, and the plates are incubated for 10 min. at room temperature. To stop the reaction, 100 μL/well of stop solution (BioFx, # LSTP-1000-01) are added. The samples are read at a wavelength of 450-570 nm on a microplate reader (Spectra, MAX 190) and no background is subtracted.

AVG A450 nm [A450 nm]	Binder
2.45	B5
2.56	B1
2.15	B2
2.37	B3
2.51	B4

target: T2, human c-Met ECD-Fc-Flis; test: HGF-blocking ELISA: HGF signal on coated c-Met ECD-Fc-Flis; Ab 1.91 ng/mL
Experimental: as §1

AVG A450 nm [A450 nm]	Binder
2.46	B5
2.59	B1
1.98	B2
2.31	B3
2.48	B4

target: T2, human c-Met ECD-Fc-Flis; test: HGF-blocking ELISA: HGF signal on coated c-Met ECD-Fc-Flis; Ab 7.63 ng/mL
Experimental: as §1

AVG A450 nm [A450 nm]	Binder
2.53	B5
2.64	B1
2.08	B2
2.27	B3
2.41	B4

target: T2, human c-Met ECD-Fc-Flis; test: HGF-blocking ELISA: HGF signal on coated c-Met ECD-Fc-Flis; Ab 30.52 ng/mL
Experimental: as §1

AVG A450 nm [A450 nm]	Binder
2.42	B5
2.42	B1
2.07	B2
2.38	B3
2.32	B4

target: T2, human c-Met ECD-Fc-Flis; test: HGF-blocking ELISA: HGF signal on coated c-Met ECD-Fc-Flis; Ab 122.07 ng/mL
Experimental: as §1

AVG A450 nm [A450 nm]	Binder
1.77	B5
2	B1
1.69	B2
1.6	B3
1.92	B4

target: T2, human c-Met ECD-Fc-Flis; test: HGF-blocking ELISA: HGF signal on coated c-Met ECD-Fc-Flis; Ab 488.28 ng/mL
Experimental: as §1

AVG A450 nm [A450 nm]	Binder
0.73	B5
1.33	B1
1.29	B2
0.94	B3
1.3	B4

target: T2, human c-Met ECD-Fc-Flis; test: HGF-blocking ELISA: HGF signal on coated c-Met ECD-Fc-Flis; Ab 1953.13 ng/mL
Experimental: as §1

AVG A450 nm [A450 nm]	Binder
0.68	B5
1.08	B1
1.23	B2
0.97	B3
1.43	B4

target: T2, human c-Met ECD-Fc-Flis; test: HGF-blocking ELISA: HGF signal on coated c-Met ECD-Fc-Flis; Ab 7812.50 ng/mL
Experimental: as §1

AVG A450 nm [A450 nm]	Binder
0.7	B5
0.95	B1
1.12	B2
0.91	B3
1.24	B4

target: T2, human c-Met ECD-Fc-Flis; test: HGF-blocking ELISA: HGF signal on coated c-Met ECD-Fc-Flis; Ab 31250.00 ng/mL
Experimental: as §1

AVG A450 nm [A450 nm]	Binder
0.98	B1
1.17	B2
0.94	B3
1.31	B4

target: T2, human c-Met ECD-Fc-Flis; test: HGF-blocking ELISA: HGF signal on coated c-Met ECD-Fc-Flis; Ab 125000.00 ng/mL
Experimental: as §1

AVG A450 nm [A450 nm]	Binder
0.69	B5
1.32	B1
1.35	B2
0.89	B3
1.38	B4

target: T2, human c-Met ECD-Fc-Flis; test: HGF-blocking ELISA: HGF signal on coated c-Met ECD-Fc-Flis; Ab 0.00 ng/mL (HGF only)
Experimental: as §1

AVG A450 nm [A450 nm]	Binder
2.61	B5
2.61	B1
2.43	B2
2.43	B3
2.43	B4
